According to ChEMBL document CHEMBL1157347, “Chemoenzymatic syntheses of prenylated aromatic small molecules using Streptomyces prenyltransferases with relaxed substrate specificities” (Bioorg Med Chem, 2008):

Tests used:
[1] = target: T1, Prenyltransferase homolog (Streptomyces coelicolor A3) (UniProt Q9FBZ2); experiment: Ratio of Kcat to Km of Streptomyces coelicolor A3(2) prenyltransferase assessed as formation of 7-(3,7-Dimethyl-octa-2,6-dienyloxy)-5-hydroxy-2-(4-hydroxy-phenyl)-chroman-4-one
T1 sequence (whole entry): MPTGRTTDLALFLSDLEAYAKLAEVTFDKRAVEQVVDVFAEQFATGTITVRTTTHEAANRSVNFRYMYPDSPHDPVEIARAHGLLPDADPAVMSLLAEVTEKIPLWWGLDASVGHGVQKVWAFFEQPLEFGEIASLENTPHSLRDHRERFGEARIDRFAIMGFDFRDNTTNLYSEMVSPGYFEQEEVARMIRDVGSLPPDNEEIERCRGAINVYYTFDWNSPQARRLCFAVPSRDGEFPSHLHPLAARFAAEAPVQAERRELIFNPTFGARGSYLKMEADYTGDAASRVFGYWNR

[2] = target: T1, Prenyltransferase homolog (Streptomyces coelicolor A3); experiment: Ratio of Kcat to Km of Streptomyces coelicolor A3(2) prenyltransferase assessed as formation of 6-(3,7-Dimethyl-octa-2,6-dienyl)-5,7-dihydroxy-2-(4-hydroxy-phenyl)-chroman-4-one
[3] = system: NphB prenyltransferase (Streptomyces sp. CL190); experiment: Ratio of Kcat to Km of Streptomyces sp. CL190 NphB prenyltransferase assessed as formation of 4-(3,7-dimethylocta-2,6-dienyl)naphthalene-1,6-diol
[4] = system: NphB prenyltransferase (Streptomyces sp. CL190); experiment: Ratio of Kcat to Km of Streptomyces sp. CL190 NphB prenyltransferase assessed as formation of 5-(3,7-dimethylocta-2,6-dienyl)naphthalene-1,6-diol
[5] = system: NphB prenyltransferase (Streptomyces sp. CL190); experiment: Ratio of Kcat to Km of Streptomyces sp. CL190 NphB prenyltransferase assessed as formation of 2-(3,7-dimethylocta-2,6-dienyl)naphthalene-1,6-diol
[6] = substrate: O=C1C[C@@H](c2ccc(O)cc2)Oc2cc(O)cc(O)c21; experiment: Activity for Streptomyces coelicolor A3(2) prenyltransferase assessed as formation of 7-(3,7-Dimethyl-octa-2,6-dienyloxy)-5-hydroxy-2-(4-hydroxy-phenyl)-chroman-4-one
[7] = substrate: O=C1C[C@@H](c2ccc(O)cc2)Oc2cc(O)cc(O)c21; experiment: Activity for Streptomyces coelicolor A3(2) prenyltransferase assessed as formation of 6-(3,7-Dimethyl-octa-2,6-dienyl)-5,7-dihydroxy-2-(4-hydroxy-phenyl)-chroman-4-one
[8] = target: NphB prenyltransferase (Streptomyces sp. CL190); experiment: Activity for Streptomyces sp. CL190 NphB prenyltransferase assessed as formation of 4-(3,7-dimethylocta-2,6-dienyl)naphthalene-1,6-diol
[9] = target: NphB prenyltransferase (Streptomyces sp. CL190); experiment: Activity for Streptomyces sp. CL190 prenyltransferase NphB assessed as formation of 5-(3,7-dimethylocta-2,6-dienyl)naphthalene-1,6-diol
[10] = target: NphB prenyltransferase (Streptomyces sp. CL190); experiment: Activity for Streptomyces sp. CL190 prenyltransferase NphB assessed as formation of 2-(3,7-dimethylocta-2,6-dienyl)naphthalene-1,6-diol
[11] = target: NphB prenyltransferase (Streptomyces sp. CL190); experiment: Activity for Streptomyces sp. CL190 prenyltransferase NphB assessed as formation of 1-(3,7-dimethylocta-2,6-dienyl)naphthalene-2,7-diol
[12] = target: NphB prenyltransferase (Streptomyces sp. CL190); experiment: Activity for Streptomyces sp. CL190 NphB prenyltransferase assessed as formation of 2-(3,7-dimethylocta-2,6-dienyl)-5-pentylbenzene-1,3-diol
[13] = target: NphB prenyltransferase (Streptomyces sp. CL190); experiment: Activity for Streptomyces sp. CL190 NphB prenyltransferase assessed as formation of 4-(3,7-dimethylocta-2,6-dienyl)-5-pentylbenzene-1,3-diol
[14] = target: NphB prenyltransferase (Streptomyces sp. CL190); experiment: Activity for Streptomyces sp. CL190 NphB prenyltransferase assessed as formation of 5-(4-hydroxystyryl)-2-((E)-3,7-dimethylocta-2,6-dienyl)benzene-1,3-diol
[15] = target: NphB prenyltransferase (Streptomyces sp. CL190); experiment: Activity for Streptomyces sp. CL190 NphB prenyltransferase assessed as formation of 7-(3,7-dimethylocta-2,6-dienyloxy)-3-(4-hydroxyphenyl)-2,3-dihydrochromen-4-one
[16] = target: NphB prenyltransferase (Streptomyces sp. CL190); experiment: Activity for Streptomyces sp. CL190 prenyltransferase NphB assessed as formation of 7-(3,7-Dimethyl-octa-2,6-dienyloxy)-5-hydroxy-2-(4-hydroxy-phenyl)-chromen-4-one
[17] = target: NphB prenyltransferase (Streptomyces sp. CL190); experiment: Activity for Streptomyces sp. CL190 prenyltransferase NphB assessed as formation of 6-(3,7-Dimethyl-octa-2,6-dienyl)-5,7-dihydroxy-2-(4-hydroxy-phenyl)-chromen-4-one
[18] = target: NphB prenyltransferase (Streptomyces sp. CL190); experiment: Activity for Streptomyces sp. CL190 prenyltransferase NphB assessed as formation of 7-(3,7-dimethylocta-2,6-dienyloxy)-5-hydroxy-3-(4-hydroxyphenyl)-2,3-dihydrochromen-4-one

**Q.** With O=C1C[C@@H](c2ccc(O)cc2)Oc2cc(O)cc(O)c21 as the molecule, how does the Ratio [1] read?
**A.** 1.4

**Q.** And the Ratio [2]?
**A.** 0.31

**Q.** Which Ratio [3] does the source give for Oc1ccc2c(O)cccc2c1 here?
**A.** 0.3

**Q.** And the Ratio [4]?
**A.** 7.7

**Q.** What about the Ratio [5] of the same molecule?
**A.** 2.2

B1: Prenyltransferase homolog (Streptomyces coelicolor A3), Q9FBZ2 (protein)
chain: T1 sequence (whole entry)
**Q.** For B1, which Km [6] is on record?
**A.** 1600 µM

**Q.** And the Km [7]?
**A.** 2100 µM

**Q.** What about the Km [8] of the same molecule?
**A.** 1050 µM

**Q.** What about the kcat [8] of the same molecule?
**A.** 0.00032 s⁻¹

**Q.** What about the Km [9] of the same molecule?
**A.** 540 µM

**Q.** What about the kcat [9] of the same molecule?
**A.** 0.0042 s⁻¹

**Q.** What about the Km [10] of the same molecule?
**A.** 510 µM

**Q.** What about the kcat [10] of the same molecule?
**A.** 0.0011 s⁻¹

**Q.** And the Km [11]?
**A.** 340 µM

**Q.** What about the kcat [11] of the same molecule?
**A.** 0.00047 s⁻¹

**Q.** And the Km [12]?
**A.** 520 µM

**Q.** And the kcat [12]?
**A.** 2.7e-05 s⁻¹

**Q.** And the Km [13]?
**A.** 640 µM

**Q.** And the kcat [13]?
**A.** 4.3e-05 s⁻¹

**Q.** And the Km [14]?
**A.** 440 µM

**Q.** And the kcat [14]?
**A.** 5.3e-05 s⁻¹

**Q.** What about the Km [15] of the same molecule?
**A.** 290 µM

**Q.** And the kcat [15]?
**A.** 0.00017 s⁻¹

**Q.** What about the Km [16] of the same molecule?
**A.** 580 µM

**Q.** What about the kcat [16] of the same molecule?
**A.** 0.00033 s⁻¹

**Q.** What about the Km [17] of the same molecule?
**A.** 530 µM

**Q.** What about the kcat [17] of the same molecule?
**A.** 0.0006 s⁻¹

**Q.** What about the Km [18] of the same molecule?
**A.** 330 µM

**Q.** And the kcat [18]?
**A.** 0.00048 s⁻¹
